According to the supplement of paper PMC10567573:
± gives the standard deviation.

Assay: protein stability index of a GFP-peptide fusion (GPS, HEK-293T) (PSI 1-6); higher = more stable
[1] = treatment: DMSO, c terminus: a fixed tail appended
[2] = treatment: MLN4924 1 uM, 8 h, c terminus: a fixed tail appended
[3] = treatment: DMSO, c terminus: native
[4] = treatment: MLN4924 1 uM, 8 h, c terminus: native
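Also: 24-mer peptide tiles fused after GFP, lentivirally expressed, FACS-sorted into six equal bins by GFP/DsRed ratio, decoded by Illumina sequencing, PSI is the read-weighted mean bin number.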

Sequence | protein stability index [1] | protein stability index [2] | protein stability index [3] | protein stability index [4]
AGNDDSFGSLPSPKELSSFSFSMK [DLC1] | 3.75 ± 0.2 | 3.87 ± 0.21 | – | –
LVMEGTDDGRLLEYDTVTREVKVL [APMAP] | 3.5 ± 0.21 | 3.58 ± 0.37 | – | –
LSLIARFSPIAIDGMSGLAGVGLS [ELAVL3] | 2.7 ± 0.73 | 2.48 ± 0.42 | – | –
FTDYGLAALAVNTSILSRLPPEAL [RNF208] | 2.29 ± 0.25 | 2.13 ± 0.31 | – | –
IKPAPARAPACSPEAAAAQLRATA [FCHO1] | 3.53 ± 0.17 | 3.98 ± 0.13 | – | –
YSPSQYALQYAGDGSVLLIPRTMA [NFE2L1] | 2.11 ± 0.22 | 2.26 ± 0.22 | – | –
SDPSTIEASNFQMDRKTRFIIHGF [PNLIPRP1] | 2.42 ± 0.067 | 2.37 ± 0.26 | – | –
LILFAWGTLLFYIGGHLVRDNDHP [FUT8] | 2.95 ± 0.19 | 3.36 ± 0.47 | – | –
SPHEMLQAVVLCSKKTFQITKQGD [USP39] | 3.34 ± 0.39 | 3.4 ± 0.28 | – | –
RTRTATMLCAASGNPDPEITWFKD [PTPRD] | 3.64 ± 0.15 | 3.72 ± 0.35 | – | –
AARPDVKCVVHIHTPAGAAVSAMK [ADD1] | 2.95 ± 0.28 | 3.11 ± 0.28 | – | –
KLATEAGVEVIVRISHTLYDLDKI [CRY1] | 2.97 ± 0.32 | 3.13 ± 0.71 | – | –
STPVCSQKVVVTTPLHRDKTPLHQ [MYBL2] | 3.92 ± 0.22 | 4.26 ± 0.24 | – | –
CPTLIYRETYPRTPYVRWNYVAKN [SOAT2] | 2.06 ± 0.23 | 2.36 ± 0.39 | – | –
QPWVEVVLALRNMKNLLFSEMWDI [MFSD9] | 2.78 ± 0.66 | 2.44 ± 0.44 | – | –
ETTERMKCLYYLYATLDLNAVKYV [PDS5B] | 2.88 ± 0.3 | 3.12 ± 0.47 | – | –
QYAMTRAQRVRAAMFPETLDEGMQ [CTNNB1] | 3.76 ± 0.29 | 3.68 ± 0.39 | – | –
VRDGPFGFSPIIGRFCGQQNPPVI [NETO1] | 2.27 ± 0.21 | 2.25 ± 0.19 | – | –
LQPEQQLNIYKTLKTHLIEKGILQ [CDS1] | 2.42 ± 0.14 | 2.58 ± 0.4 | – | –
LQMEMKEDDVSFLMKHKSRKRRLF [TRIM35] | 3.35 ± 0.35 | 3.54 ± 0.16 | – | –
ESSQTDLKLVAHPRAKSKVWKYFG [ZBED1] | 3.02 ± 0.31 | 3.42 ± 0.27 | – | –
EQRTIQAQKESLQNQHHSASLQAS [APBB1IP] | 5.16 ± 0.19 | 4.99 ± 0.18 | – | –
YKRSMDPGYPKMIAHDFPGIGHKV [MMP1] | 2.55 ± 0.21 | 2.77 ± 0.094 | – | –

Sequence | protein stability index [1] | protein stability index [2] | protein stability index [3] | protein stability index [4]
LAAVTPHDFIEHILRKLPQQREKL [CCND2] | 2.53 ± 0.17 | 2.74 ± 0.23 | – | –
QQMVASGTGAVVTSLFMTPLDVVK [SLC25A39] | 2.8 ± 0.17 | 2.98 ± 0.21 | – | –
ALQEYSSISEKLSSTNFAMKRDVQ [C8orf76] | 3.26 ± 0.18 | 3.48 ± 0.43 | – | –
VSLAVTLHRLKFLGFARRNWGNGK [GDAP1] | 2.38 ± 0.41 | 2.33 ± 0.64 | – | –
VKSHLLDYVMTTLLFSDKNVNSNL [TRIP13] | 3.08 ± 0.36 | 2.79 ± 0.32 | – | –
EGNSMRCGRKLAKDGEYCWRWTGF [GMCL1] | 2.49 ± 0.22 | 2.11 ± 0.14 | – | –
ETRDWGGAQFEGEKGRALQIRDWR [ZSWIM9] | 3.63 ± 0.32 | 3.84 ± 0.15 | – | –
LEDTCKTIEECCRKQKQELCEKFD [TRIM55] | 4.86 ± 0.094 | 4.74 ± 0.25 | – | –
SALATQYMHCVNHAKQSMLEKGG [CHCHD3] | – | – | 2.81 ± 0.55 | 3.02 ± 0.34
SPISSISPGLHSFTDHQRLMKRRK [KCNK9] | 4.7 ± 0.28 | 4.8 ± 0.16 | – | –
LFSLKESPEKFQIEANFPRRVLPC [FAF2] | 2.61 ± 0.3 | 2.84 ± 0.24 | – | –
RFFIDFPHIEEQQKKIESYLHNHF [TENT5D] | 2.13 ± 0.38 | 2.35 ± 0.18 | – | –
YSDKNAKLTKESYPVVVAESMYGD [TENT5D] | 4.39 ± 0.054 | 4.43 ± 0.22 | – | –
KGEFKDEEETVTTKHIHITQATET [CLINT1] | 5.42 ± 0.059 | 5.4 ± 0.097 | – | –
PSMNPDGYEVAAAQGPNKPGYLVG [CPN1] | 4.33 ± 0.19 | 4.25 ± 0.24 | – | –
QEHSNSVGGQDTGATWRTSGLLEE [C18orf25] | 5.28 ± 0.27 | 4.96 ± 0.18 | – | –
ILAAACESETRKAAKRMRLEIYQS [NOL4L] | 2.47 ± 0.24 | 2.54 ± 0.05 | – | –
DSETLDLEEAEGAVGYQPEYSKFC [NFE2L1] | 5.13 ± 0.34 | 5.01 ± 0.5 | – | –
VRLGSFRSPRAGAGALLRLPSERL [PRPH] | 2.96 ± 0.16 | 3.23 ± 0.24 | – | –
ADLSSGSSGEDDDFKSCPQGPQGR [PWWP2B] | 5.36 ± 0.15 | 5.52 ± 0.13 | – | –
QAELSYKKVSEGPPLRLWRSVIEV [DLC1] | 2.19 ± 0.31 | 2.49 ± 0.43 | – | –
EDDRDGLLAEREQEEAIAQFPYVE [TMEM106C] | 5.5 ± 0.19 | 5.64 ± 0.1 | – | –
KSYPSSELRNMCDEHIASEEPAEK [CLCN6] | 5.53 ± 0.2 | 5.44 ± 0.27 | – | –

Sequence | protein stability index [1] | protein stability index [2] | protein stability index [3] | protein stability index [4]
TKPSKSAALHIDLCKATSPADALQ [INTS4] | 3.91 ± 0.1 | 3.84 ± 0.29 | – | –
NNWPPLPSFCPVQPCFFQDISMEI [SCAMP3] | 2.4 ± 0.53 | 2.55 ± 0.5 | – | –
SKKLRAILPKQSRKSMLDAGPDSW [LCOR] | 2.71 ± 0.06 | 3.03 ± 0.44 | – | –
QYQANKVTHTLTMRQRISRVEESA [PPEF2] | 3.65 ± 0.16 | 3.77 ± 0.16 | – | –
LDPWFAGSSNVGINRWRFLLQCLE [CRY1] | 2.5 ± 0.36 | 2.54 ± 0.23 | – | –
MLSLKKYLTEGLLQFTILLSLIGV [NFE2L1] | 3.33 ± 0.27 | 2.82 ± 0.47 | – | –
EQKLRACLEGSINEHSAHCPHTPE [RPAIN] | 4.92 ± 0.28 | 4.99 ± 0.23 | – | –
PPRPPPRGTPPRRHSFRKHLYLLR [N4BP2L1] | 3.32 ± 0.35 | 3.56 ± 0.23 | – | –
ARKYFERLPGGGWTLRRTKELRKD [DYRK1B] | 3.66 ± 0.45 | 3.86 ± 0.44 | – | –
SDVLTISGTIMKIGIEAKNLASYD [MCOLN1] | 2.39 ± 0.24 | 2.5 ± 0.33 | – | –
ILTIICYLGLPRLEFYRYYQQLKL [SLC29A1] | 3.31 ± 0.33 | 3.08 ± 0.56 | – | –
HGASAPSVSREARQTVPPLTVRLH [PWWP2B] | 3.76 ± 0.48 | 3.73 ± 0.12 | – | –
KPDGTVEQIGHILVSWLPRLNAYR [NET1] | 2.21 ± 0.52 | 2.1 ± 0.1 | – | –
EILTCGRDGEPEPMQKLQDLVNRT [RBBP5] | 4.01 ± 0.2 | 3.78 ± 0.25 | – | –
DDFDEDELMAELEELEQEELNKKM [CHMP4C] | 5.16 ± 0.85 | 5.6 ± 0.3 | – | –
LSTPKPLVDFCNKPILLHQVEALA [GMPPB] | 2.54 ± 0.3 | 2.52 ± 0.41 | – | –
SSRQTRPILKEQSSSSFSQGQSS [KRT16] | – | – | 5.3 ± 0.29 | 5.33 ± 0.25
WNHIRLQRTAKGKPVLAKDSSNPY [AASDHPPT] | 2.9 ± 0.39 | 3.19 ± 0.3 | – | –
NNKKWILSASKDRTMRLWNIEEID [WDR88] | 2.66 ± 0.12 | 2.86 ± 0.44 | – | –
DYTWTEFDEPFLTRNVQSVSIIDT [TRIP13] | 3.1 ± 0.24 | 3.19 ± 0.23 | – | –
HGEEEVETFAFQAEIAQLMSLIIN [HSP90AB1] | 2.58 ± 0.33 | 2.95 ± 0.28 | – | –
GDMNHEWIGNEWLPSLGLPQYRSY [PPFIA4] | 2.41 ± 0.73 | 2.8 ± 0.38 | – | –
TIKRSSQTGEWQNIAIMTEEPELS [GFOD1] | 4.42 ± 0.33 | 4.26 ± 0.43 | – | –

Sequence | protein stability index [1] | protein stability index [2] | protein stability index [3] | protein stability index [4]
VDEKGEKVRPSHKRCIVILREIPE [LARP4] | 2.9 ± 0.11 | 3.07 ± 0.037 | – | –
ETLQPSVWFGGREHVLMFAKLALY [TMEM175] | 2.52 ± 0.46 | 2.44 ± 0.43 | – | –
SDVVGRRSSLLACILLSALGYLLL [MFSD9] | 3.22 ± 0.32 | 3.19 ± 0.26 | – | –
EIVNYEPLGLEADMWSIGVITYIL [DAPK3] | 2.35 ± 0.48 | 1.98 ± 0.27 | – | –
SDAAFGGILERYWLSSRAAAIKVN [MYORG] | 2.19 ± 0.2 | 2.17 ± 0.21 | – | –
LLSSVHVLDLEARGYIKPHVDSIK [ALKBH7] | 2.97 ± 0.22 | 3.19 ± 0.33 | – | –
AVLYPRFMGTISDVKTNVQLLKGR [CD207] | 2.49 ± 0.11 | 2.56 ± 0.16 | – | –
QLKESKSKIDALSSEKLNLQKDLE [CEP70] | 5.03 ± 0.1 | 5.16 ± 0.13 | – | –
EKEESRREAEKQNYLAEHCPPLHI [TNNI2] | 4.93 ± 0.17 | 4.94 ± 0.22 | – | –
SYNITVTATDGGSPPLSTEAHFML [PCDHGA10] | 2.03 ± 0.36 | 2.09 ± 0.4 | – | –
PQERTLTLVDTGIGMTKADLINNL [HSP90AB1] | 3.49 ± 0.33 | 3.67 ± 0.26 | – | –
PAQSHTLQANDVFHKQQWFNCIRA [NET1] | 2.71 ± 0.38 | 2.71 ± 0.3 | – | –
LPPEKGREVAKELGLPYYETSVFD [RHOBTB1] | 3.65 ± 0.18 | 3.8 ± 0.24 | – | –
EEENIGCEEKAKKNANRPLLDEIV [ACBD3] | 5.25 ± 0.24 | 5.46 ± 0.24 | – | –
ITWNRVVLLHGPPGTGKTSLCKAL [TRIP13] | 2.32 ± 0.58 | 2.13 ± 0.2 | – | –
ASQPVKKQQENATSCSLELIGDLI [WDR41] | 3.47 ± 0.27 | 3.45 ± 0.38 | – | –
LSDTELTTLLRRYNIPHGPVVGST [EMD] | 2.74 ± 0.38 | 2.69 ± 0.26 | – | –
TSPVLPSLIQLLGRNFILFIIFGT [HACD3] | 3.11 ± 0.48 | 2.98 ± 0.4 | – | –
EPHPRPLLQRELMVPGTRHSAVLR [TNXB] | 3.93 ± 0.42 | 4.2 ± 0.59 | – | –
FQVPVLCAVMNVVFITILIIALIA [CD69] | 2.91 ± 0.36 | 2.96 ± 0.68 | – | –
